{"source": "patent CN106754740A", "binders": {"B1": {"name": "小鼠抗人MDR-1单克隆抗体 (杂交瘤细胞株6C6, CGMCC No. 6917 产生) (antibody, part only; not given: light chain variable region, constant regions, V domains shown, part only)", "VH": "LGISTMNFGLSWVFLVLVLKGVQCEVKLVESGGGLVKPGGSLKLSCAASGFTFSNYAMSWVRQTPEKRLEWVASISSGGGGSTYYPDSVKGRFTISRDNARNILYLLMSSLRSEDTAMYYVCVMSLSEQSSCINLP"}}, "target": "纯化的重组蛋白MDR-1 (原核表达, PET28a-MDR-1, 大肠杆菌BL21) (human) (UniProt P08183)", "sequence (P08183 whole entry)": "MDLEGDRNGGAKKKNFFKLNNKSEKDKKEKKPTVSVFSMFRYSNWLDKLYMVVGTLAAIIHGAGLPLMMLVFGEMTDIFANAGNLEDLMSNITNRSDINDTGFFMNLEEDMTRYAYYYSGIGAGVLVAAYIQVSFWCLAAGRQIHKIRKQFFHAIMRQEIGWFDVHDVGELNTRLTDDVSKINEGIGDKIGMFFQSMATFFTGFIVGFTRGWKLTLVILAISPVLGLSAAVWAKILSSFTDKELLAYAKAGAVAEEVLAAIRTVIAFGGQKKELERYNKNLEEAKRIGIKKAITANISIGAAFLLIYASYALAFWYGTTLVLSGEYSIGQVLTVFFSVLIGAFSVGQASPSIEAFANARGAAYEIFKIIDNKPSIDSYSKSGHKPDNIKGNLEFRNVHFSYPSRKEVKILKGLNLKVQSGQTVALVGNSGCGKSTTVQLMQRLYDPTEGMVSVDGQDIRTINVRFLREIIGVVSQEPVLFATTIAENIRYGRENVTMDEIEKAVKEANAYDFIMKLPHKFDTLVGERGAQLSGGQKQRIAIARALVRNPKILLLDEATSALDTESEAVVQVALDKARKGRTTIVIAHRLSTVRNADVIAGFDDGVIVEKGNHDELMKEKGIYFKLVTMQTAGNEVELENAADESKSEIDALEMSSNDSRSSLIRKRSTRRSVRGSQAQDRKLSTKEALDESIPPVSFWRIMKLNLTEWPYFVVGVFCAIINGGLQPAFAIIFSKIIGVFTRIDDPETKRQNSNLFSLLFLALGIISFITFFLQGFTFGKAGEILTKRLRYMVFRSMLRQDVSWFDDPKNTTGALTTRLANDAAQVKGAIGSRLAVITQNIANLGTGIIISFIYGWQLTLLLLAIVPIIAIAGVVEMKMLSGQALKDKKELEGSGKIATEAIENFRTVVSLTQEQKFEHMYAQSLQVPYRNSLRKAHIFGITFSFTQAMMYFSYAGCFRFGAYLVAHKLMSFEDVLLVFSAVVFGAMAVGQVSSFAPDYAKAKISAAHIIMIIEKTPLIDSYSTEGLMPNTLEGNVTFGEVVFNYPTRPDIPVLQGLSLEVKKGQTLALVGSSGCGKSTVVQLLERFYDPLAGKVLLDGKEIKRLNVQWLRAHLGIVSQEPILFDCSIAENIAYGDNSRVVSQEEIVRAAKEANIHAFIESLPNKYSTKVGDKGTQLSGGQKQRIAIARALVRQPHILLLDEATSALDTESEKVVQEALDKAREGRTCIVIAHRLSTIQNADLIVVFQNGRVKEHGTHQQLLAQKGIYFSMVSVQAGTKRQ", "assay": "direct ELISA, purified antibody diluted 1:200 to 1:12800 on plate coated with purified MDR-1 protein (10 μg/ml), goat anti-mouse IgG-HRP, OD450", "data": [{"binder": "B1", "values": [{"measurement": "ELISA滴度 (dilution (1:x))", "result": "> 10000"}]}]}
